These results are taken from article PMC5561102, “Fusion protein analysis reveals the precise regulation between Hsp70 and Hsp100 during protein disaggregation” (Scientific Reports, 2017).

The target in one test is ClpB (Escherichia coli) (UniProt P63284). As to conditions: cited from earlier work.
For test [1], the target named is TK-B (Thermus thermophilus) (UniProt Q56235).
Test [2] has as its target TK_NBD-B (Thermus thermophilus) (UniProt Q56235).
In test [3] the target is TK_ΔSBDα_K69A-B (Thermus thermophilus) (UniProt Q56235).
Test [4] addresses TK_ΔSBDα_T195A-B (Thermus thermophilus) (UniProt Q56235).
The target in test [5] is TK_NBD_T195A-B (Thermus thermophilus) (UniProt Q56235).
TK_NBD_T195A-B (Thermus thermophilus), sequence (Q56235 other isoform, or with tags, fused parts or gaps T195A | T195A): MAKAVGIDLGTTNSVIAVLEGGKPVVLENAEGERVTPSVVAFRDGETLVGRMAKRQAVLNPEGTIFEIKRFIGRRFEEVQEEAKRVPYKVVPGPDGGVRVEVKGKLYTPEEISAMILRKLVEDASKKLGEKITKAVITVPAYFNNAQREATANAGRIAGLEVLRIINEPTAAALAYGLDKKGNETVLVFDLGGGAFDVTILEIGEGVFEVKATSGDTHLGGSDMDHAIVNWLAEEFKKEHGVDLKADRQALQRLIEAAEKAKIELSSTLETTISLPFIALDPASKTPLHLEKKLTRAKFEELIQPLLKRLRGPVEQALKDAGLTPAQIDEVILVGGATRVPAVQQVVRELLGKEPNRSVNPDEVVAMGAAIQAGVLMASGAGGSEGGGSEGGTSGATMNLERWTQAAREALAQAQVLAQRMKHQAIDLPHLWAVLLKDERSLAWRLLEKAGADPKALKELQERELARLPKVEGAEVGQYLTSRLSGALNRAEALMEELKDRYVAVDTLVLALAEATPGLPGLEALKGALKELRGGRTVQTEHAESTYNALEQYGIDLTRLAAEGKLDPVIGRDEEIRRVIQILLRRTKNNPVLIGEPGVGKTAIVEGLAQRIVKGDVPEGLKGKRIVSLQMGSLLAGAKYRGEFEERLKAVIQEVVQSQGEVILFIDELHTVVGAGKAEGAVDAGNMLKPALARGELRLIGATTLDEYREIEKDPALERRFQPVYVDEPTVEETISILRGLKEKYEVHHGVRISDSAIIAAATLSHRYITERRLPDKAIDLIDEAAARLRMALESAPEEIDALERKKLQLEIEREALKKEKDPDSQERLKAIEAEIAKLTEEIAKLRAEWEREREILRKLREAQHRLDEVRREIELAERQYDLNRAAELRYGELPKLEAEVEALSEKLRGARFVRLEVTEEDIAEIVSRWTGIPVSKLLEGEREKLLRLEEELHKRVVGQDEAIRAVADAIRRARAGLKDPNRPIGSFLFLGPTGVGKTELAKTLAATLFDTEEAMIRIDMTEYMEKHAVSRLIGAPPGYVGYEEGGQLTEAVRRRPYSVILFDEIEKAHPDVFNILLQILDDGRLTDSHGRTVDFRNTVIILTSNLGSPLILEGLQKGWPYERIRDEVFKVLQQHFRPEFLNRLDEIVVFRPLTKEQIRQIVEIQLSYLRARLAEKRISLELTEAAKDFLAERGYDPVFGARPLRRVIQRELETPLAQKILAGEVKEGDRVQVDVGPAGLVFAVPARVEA
The target of test [6] is TK_NBD_K69A-B (Thermus thermophilus) (UniProt Q56235).
TK_NBD_K69A-B (Thermus thermophilus), sequence (Q56235 other isoform, or with tags, fused parts or gaps K69A | K69A): as the sequence (Q56235 other isoform, or with tags, fused parts or gaps T195A | T195A) above, with K69A, A195T counted along it
The target of test [7] is TK_NBD-B (Thermus thermophilus) (UniProt Q56235). The source holds these as a separate data set.
Target sequence in this assay (Q56235 other isoform, or with tags, fused parts or gaps): as the sequence (Q56235 other isoform, or with tags, fused parts or gaps T195A | T195A) above, with A195T counted along it
Test [8] deals with TK_NBD_T195A-B (Thermus thermophilus) (UniProt Q56235). This is another data set of the same source.
The target in test [9] is TK_NBD_K69A-B (Thermus thermophilus) (UniProt Q56235). This is another data set of the same source.
For test [10], the target named is TK_NBD-B (Thermus thermophilus) (UniProt Q56235). This is another data set of the same source.
Target sequence in this assay (Q56235 other isoform, or with tags, fused parts or gaps): as the sequence (Q56235 other isoform, or with tags, fused parts or gaps T195A | T195A) above, with A195T counted along it

Broadly, the Kd is the free concentration of one partner at which half of the binding sites on the other are occupied at equilibrium, for simple one-to-one binding.

Where only a bound is given, the exact number is not on record here.

Thermus thermophilus DnaK (TDnaK), sequence (Q56235 whole entry): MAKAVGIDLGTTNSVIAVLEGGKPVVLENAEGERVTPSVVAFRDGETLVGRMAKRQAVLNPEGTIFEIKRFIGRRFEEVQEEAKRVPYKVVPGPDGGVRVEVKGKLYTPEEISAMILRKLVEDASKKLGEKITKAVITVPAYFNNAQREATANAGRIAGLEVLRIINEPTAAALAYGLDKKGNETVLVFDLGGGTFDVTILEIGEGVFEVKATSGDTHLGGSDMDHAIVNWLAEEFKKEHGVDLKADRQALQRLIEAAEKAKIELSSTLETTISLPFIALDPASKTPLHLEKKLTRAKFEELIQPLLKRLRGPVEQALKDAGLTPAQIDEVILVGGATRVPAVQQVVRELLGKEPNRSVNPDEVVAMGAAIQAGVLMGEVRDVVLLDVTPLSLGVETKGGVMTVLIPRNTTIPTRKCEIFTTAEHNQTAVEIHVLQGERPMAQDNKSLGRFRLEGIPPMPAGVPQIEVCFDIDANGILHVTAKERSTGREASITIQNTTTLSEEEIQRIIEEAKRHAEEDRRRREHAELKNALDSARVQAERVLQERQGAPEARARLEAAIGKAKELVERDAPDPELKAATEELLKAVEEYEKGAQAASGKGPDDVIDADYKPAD
DnaK, sequence (P0A6Y8 2-638): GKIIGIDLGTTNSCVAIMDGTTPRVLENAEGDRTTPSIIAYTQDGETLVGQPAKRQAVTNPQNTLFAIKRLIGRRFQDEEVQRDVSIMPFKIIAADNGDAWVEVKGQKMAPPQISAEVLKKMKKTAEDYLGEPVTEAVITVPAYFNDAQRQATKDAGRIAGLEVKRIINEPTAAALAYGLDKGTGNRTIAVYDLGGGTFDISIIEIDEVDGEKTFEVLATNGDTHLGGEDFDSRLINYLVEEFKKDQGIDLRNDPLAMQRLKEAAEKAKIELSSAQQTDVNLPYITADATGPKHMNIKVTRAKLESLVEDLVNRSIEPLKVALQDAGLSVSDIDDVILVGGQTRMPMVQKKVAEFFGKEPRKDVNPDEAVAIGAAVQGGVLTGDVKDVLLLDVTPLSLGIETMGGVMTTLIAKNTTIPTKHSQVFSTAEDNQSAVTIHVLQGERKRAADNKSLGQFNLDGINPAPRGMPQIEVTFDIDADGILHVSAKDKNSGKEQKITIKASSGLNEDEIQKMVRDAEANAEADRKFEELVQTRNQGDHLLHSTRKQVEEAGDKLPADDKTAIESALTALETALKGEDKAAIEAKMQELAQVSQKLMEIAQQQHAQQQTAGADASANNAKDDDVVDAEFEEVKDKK
ClpB (Escherichia coli), sequence (P63284 whole entry): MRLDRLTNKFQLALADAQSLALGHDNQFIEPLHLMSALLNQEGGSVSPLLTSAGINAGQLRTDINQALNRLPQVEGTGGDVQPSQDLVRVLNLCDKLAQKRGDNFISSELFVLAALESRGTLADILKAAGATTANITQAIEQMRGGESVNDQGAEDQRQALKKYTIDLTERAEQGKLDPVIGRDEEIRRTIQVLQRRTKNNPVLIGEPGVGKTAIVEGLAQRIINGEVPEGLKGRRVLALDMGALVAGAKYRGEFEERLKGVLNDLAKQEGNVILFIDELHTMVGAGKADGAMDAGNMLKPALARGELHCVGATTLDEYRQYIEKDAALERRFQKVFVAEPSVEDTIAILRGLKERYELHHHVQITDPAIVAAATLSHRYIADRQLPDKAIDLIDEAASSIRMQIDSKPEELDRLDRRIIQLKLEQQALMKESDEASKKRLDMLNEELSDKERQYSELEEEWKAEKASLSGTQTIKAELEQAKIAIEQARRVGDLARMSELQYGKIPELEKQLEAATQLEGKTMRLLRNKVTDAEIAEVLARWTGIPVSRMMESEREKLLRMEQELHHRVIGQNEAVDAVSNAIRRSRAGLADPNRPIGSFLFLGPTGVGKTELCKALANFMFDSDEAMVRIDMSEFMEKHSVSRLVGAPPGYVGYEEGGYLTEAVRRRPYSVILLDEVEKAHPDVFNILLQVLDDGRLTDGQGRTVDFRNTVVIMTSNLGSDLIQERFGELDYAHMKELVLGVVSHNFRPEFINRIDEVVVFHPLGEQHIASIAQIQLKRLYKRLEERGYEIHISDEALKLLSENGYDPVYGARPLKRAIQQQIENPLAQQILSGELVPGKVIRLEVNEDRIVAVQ

With DnaK (from UniProt P0A6Y8), the Kd in the test with ClpB (Escherichia coli) was 25 µM.
Take “TK-B (from UniProt Q56235 1-615; Q9RA63 1-854)”: the ATPase activity of the fusion (TClpB portion stimulated by the fused TDnaK portion), 55 °C, 3 mM ATP, against unfused TClpB (times that of TClpB) in test [1] was 5.
As for “TK_NBD-B (from UniProt Q56235 1-377; Q9RA63 1-854)”, the ATPase activity of the fusion (TClpB portion stimulated by the fused NBD of TDnaK), 55 °C, 3 mM ATP, against TK-B in [2] was 2 fold of TK-B.
As for “TK_ΔSBDα_K69A-B (from UniProt Q56235 1-501; Q9RA63 1-854)”, the ATPase activity of the fusion, 55 °C, 3 mM ATP, against TK K69A-B (fold of TK K69A-B) in test [3] worked out at 1.5.
“TK_ΔSBDα_T195A-B (from UniProt Q56235 1-501; Q9RA63 1-854)”: in test [4], the ATPase stimulation of the fusion, 55 °C, 3 mM ATP is 2 fold.
As to “Thermus thermophilus DnaK (TDnaK) (from UniProt Q56235 1-615) (natural protein)”, the rate of reactivation of heat-aggregated EYFP by the fusion with unfused TDnaK, TDnaJ, TGrpE (TKJE) and 5 mM ATP, 55 °C in test [5], in [6] and in test [7] was less than 0.1 % min^-1 each time. Also, the reactivation of heat-aggregated α-glucosidase by the fusion with unfused TDnaK, TDnaJ, TGrpE (TKJE) and 5 mM ATP, 55 °C, 90 min in test [8], in test [9] and in test [10] was less than 2% each time.
